Substitutions are numbered along the chain they refer to. Names may count otherwise.
B1: SmFtsZ-WT (full-length Streptococcus mutans FtsZ) (natural protein)
chain: MAFSFDAASVQGAVIKVIGVGGGGGNAINRMIDEGVAGVEFIAANTDIQALSSSKAETVIQLGPKLTRGLGAGGQPEIGRKAAEESEEALTEALTGADMVFITAGMGGGSGTGAAPVIARIAKGLGSLTVAVVTRPFGFEGSKRGNYAIEGINELRDEVDTLLIISNNNLLEIVDKKTPLLEALSEADNVLRQGVQGITDLITSPGLINLDFADVKTVMASKGNALMGIGIGTGEERVVEAARKAIYSPLLETTIDGAEDVIVNVTGGLDMTLTEAEEASEIVNQAAGHGVNIWLGTSIDDSMKDEIRVTVVATGVRPDKADQVSGIRRQASSYTQPRAQQQAPSSNSAQPNFERRQNFDFDLNESPEMPAAEPQQTQSSSEPQQSAFGDWNLRRENIARPTEGEIDSQLKMSSFSADSDDDDELETPPFFKNR
B2: SmFtsZ-R68A (natural protein)
chain: B1 chain with R68A

Target: the molecule itself
Assay: SAXS

| Protein | binding result |
| --- | --- |
| B1 | binds |
| B2 | binds |
